Key:
[1] = system: T1, CCC[C@H](NC(=O)[C@H](C)NC(=O)[C@H](Cc1ccc(O)cc1)NC(=O)[C@@H]1CCCN1C(=O)[C@H](CCCCN)NC(=O)[C@@H]1CCCN1C(=O)[C@H](CCCNC(=N)N)NC(=O)Cc1cc(=O)oc2cc(OC)ccc12)C(=O)N[C@@H](Cc1c[nH]c2ccccc12)C(=O)N[C@@H](CCSC)C(=O)N[C@@H](CCCCNc1ccc([N+](=O)[O-])cc1[N+](=O)[O-])C(N)=O; experiment: Fluorometric hydrolysis of synthetic Mca/Lys(Dnp) substrates by MMP-3; assay type: biochemical, human; conditions: other: MMP-3, 37° C., pH 7.5; 37.0 °C
T1 construct: made in house; host or cells: native secreted protein purified from culture medium of human rheumatoid synovial cells
Source text: (§1) All MMPs were purified in zymogen form. ProMMP-1 (Suzuki et al., Biochem., 29, 10261 (1990)), proMMP-2 (Okada et al., Eur. J. Biochem., 194, 721 (1990)), and proMMP-3 (Ito et al., Arch. Biochem. Biophys., 267, 211 (1988)) were purified from the culture medium of human rheumatoid synovial cells stimulated with rabbit macrophage-conditioned medium. ProMMP-9 was purified from the culture medium of HT-1080 cells as described in Morodomi et al., Biochem. J., 285, 603 (1992). ProMMP-2 and proMMP-9 were activated by reacting with 1 mM 4-aminophenylmercuric acetate at 37° C. for 45 minutes and 32 hours, respectively. ProMMP-1 was activated by reacting with 1 mM 4-aminophenylmercuric acetate and an equimolar amount of MMP-3 at 37° C. for 6 hours. After activation, MMP-3 was completely removed from MMP-1 by affinity chromatography using an anti-MMP-3 IgG Affi-Gel 10 column. The resin, Affi-Gel 10 (Biorad, Emoryville, Calif.), was coupled to anti-MMP-3 IgG (Okada et al., Annals of Rheumat. Dis., 48, 645 (1989)) per the manufacturer's protocol. Pro-MMP-3 was activated by reacting with 5 μg/mL chymotrypsin at 37° C. for 2 hours. Chymotrypsin was inactivated with 2 mM diisopropylfluorophosphate. The amounts of active MMP-1, MMP-2, and MMP-3 were determined by titration with tissue inhibitor of metalloproteinase-1(TIMP1) over a concentration range of 0.1-3 μg/mL, while the amount of active MMP-9 was determined by titration with TIMP-2 (0.1-3 μg/mL). TIMP-1 was isolated from the medium of HT-1080 cells as described in Morodomi et al., Biochem J., 285, 603 (1992).
(§2) Substrates were prepared as 10 mM stock solutions in dimethylsulfoxide (DMSO). Fluorescent assays were performed at λex =325 nm and λem =393 nm, which should encounter no interference from Trp residues, using a Hitachi fluorescence spectrophotometer F-3010. Initial total hydrolysis assays were run at a substrate concentration of […] to avoid filtering effects. The change in fluorescence at this concentration was 110 based on total hydrolysis of 1 μM substrate. A typical assay was carried out by incubating 100 μL of various concentrations of a substrate with 10 μL of an enzyme solution (2-20 nM) in 50 mM Tris-HCl, pH 7.5, 0.15M NaCl, 10 mM CaCl2, 0.05% Brij 35, 0.02% NaN3. The reaction was stopped by addition of 900 μl of 3% (v/v) glacial acetic acid. MMP-3 activity at pH 6.0 was measured in 50 mM sodium acetate buffer, pH 6.0, instead of Tris-HCl buffer. The amount of substrate hydrolysis was calculated based on the fluorescence values of the Mca-Arg-Pro-Lys-Pro-Gln standard solution after substraction of the reaction blank value (stopping solution added before the enzyme). Individual kinetic parameters (kcat and KM) were determined over a substrate concentration range of 2.5-75 μM and calculated by double reciprocal plots.

[2] = system: T2, CCC[C@H](NC(=O)[C@H](CCC(=O)O)NC(=O)[C@@H](NC(=O)[C@@H]1CCCN1C(=O)[C@H](CCCCN)NC(=O)[C@@H]1CCCN1C(=O)[C@H](CCCNC(=N)N)NC(=O)Cc1cc(=O)oc2cc(OC)ccc12)C(C)C)C(=O)N[C@@H](Cc1c[nH]c2ccccc12)C(=O)N[C@@H](CCCNC(=N)N)C(=O)N[C@@H](CCCCNc1ccc([N+](=O)[O-])cc1[N+](=O)[O-])C(N)=O; experiment: as above; assay type: biochemical, human
T2 construct: made in house; host or cells: native secreted protein purified from culture medium of human rheumatoid synovial cells
Source text: as §1, §2

[3] = system: T3, COc1ccc2c(CC(=O)N3CCC[C@H]3C(=O)N[C@@H](CCCCN)C(=O)N3CCC[C@H]3C(=O)N[C@@H](CCC(N)=O)C(=O)N[C@@H](CCC(N)=O)C(=O)N[C@@H](Cc3ccccc3)C(=O)N[C@@H](Cc3ccccc3)C(=O)NCC(=O)N[C@@H](CC(C)C)C(=O)N[C@@H](CCCCNc3ccc([N+](=O)[O-])cc3[N+](=O)[O-])C(=O)NCC(=O)O)cc(=O)oc2c1; experiment: as above; assay type: biochemical, human; conditions: other: MMP-3, 37° C., pH 7.5; 37.0 °C
T3 construct: made in house; host or cells: native secreted protein purified from culture medium of human rheumatoid synovial cells
Source text: as §1, §2

[4] = system: T4, CCC[C@H](NC(=O)[C@H](C)NC(=O)[C@H](Cc1ccc(O)cc1)NC(=O)[C@@H]1CCCN1C(=O)[C@H](CCCCN)NC(=O)[C@@H]1CCCN1C(=O)[C@H](CCCNC(=N)N)NC(=O)Cc1cc(=O)oc2cc(OC)ccc12)C(=O)N[C@@H](Cc1c[nH]c2ccccc12)C(=O)N[C@@H](CCSC)C(=O)N[C@@H](CCCCNc1ccc([N+](=O)[O-])cc1[N+](=O)[O-])C(N)=O; experiment: Fluorometric hydrolysis of synthetic Mca/Lys(Dnp) substrates by MMP-9; assay type: biochemical; conditions: other: MMP-9, 37° C., pH 7.5
T4 construct: made in house; host or cells: native secreted protein purified from culture medium of HT-1080 cells
Source text: as §1, §2

[5] = system: T5, CCC[C@H](NC(=O)[C@H](CCC(=O)O)NC(=O)[C@@H](NC(=O)[C@@H]1CCCN1C(=O)[C@H](CCCCN)NC(=O)[C@@H]1CCCN1C(=O)[C@H](CCCNC(=N)N)NC(=O)Cc1cc(=O)oc2cc(OC)ccc12)C(C)C)C(=O)N[C@@H](Cc1c[nH]c2ccccc12)C(=O)N[C@@H](CCCNC(=N)N)C(=O)N[C@@H](CCCCNc1ccc([N+](=O)[O-])cc1[N+](=O)[O-])C(N)=O; experiment: as above; assay type: biochemical; conditions: other: MMP-9, 37° C., pH 7.5
T5 construct: made in house; host or cells: native secreted protein purified from culture medium of HT-1080 cells
Source text: as §1, §2

[6] = system: T6, COc1ccc2c(CC(=O)N3CCC[C@H]3C(=O)N[C@@H](CCCCN)C(=O)N3CCC[C@H]3C(=O)N[C@@H](CCC(N)=O)C(=O)N[C@@H](CCC(N)=O)C(=O)N[C@@H](Cc3ccccc3)C(=O)N[C@@H](Cc3ccccc3)C(=O)NCC(=O)N[C@@H](CC(C)C)C(=O)N[C@@H](CCCCNc3ccc([N+](=O)[O-])cc3[N+](=O)[O-])C(=O)NCC(=O)O)cc(=O)oc2c1; experiment: as above; assay type: biochemical; conditions: other: MMP-9, 37° C., pH 7.5
T6 construct: made in house; host or cells: native secreted protein purified from culture medium of HT-1080 cells
Source text: as §1, §2

[7] = other: MMP-3, 25° C., pH 7.5, 25.0 °C
[8] = other: MMP-3, 37° C., pH 7.5, 37.0 °C
[9] = other: MMP-3, pH 6.0 (50 mM sodium acetate buffer), 37° C., pH 6.0, 37.0 °C

MMP-3 (Homo sapiens), sequence (chain, as listed by the source): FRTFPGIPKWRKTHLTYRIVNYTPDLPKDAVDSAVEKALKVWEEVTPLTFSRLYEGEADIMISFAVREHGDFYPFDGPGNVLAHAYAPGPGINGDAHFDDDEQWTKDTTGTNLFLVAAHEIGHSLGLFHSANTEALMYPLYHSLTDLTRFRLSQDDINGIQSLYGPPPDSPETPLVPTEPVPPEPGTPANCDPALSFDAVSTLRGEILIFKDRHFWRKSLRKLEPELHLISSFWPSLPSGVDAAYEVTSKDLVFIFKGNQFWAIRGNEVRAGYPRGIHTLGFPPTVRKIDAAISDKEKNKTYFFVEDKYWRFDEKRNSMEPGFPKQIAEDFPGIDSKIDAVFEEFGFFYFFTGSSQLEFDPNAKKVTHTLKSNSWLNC
MMP-9 (Homo sapiens), sequence (chain, as listed by the source): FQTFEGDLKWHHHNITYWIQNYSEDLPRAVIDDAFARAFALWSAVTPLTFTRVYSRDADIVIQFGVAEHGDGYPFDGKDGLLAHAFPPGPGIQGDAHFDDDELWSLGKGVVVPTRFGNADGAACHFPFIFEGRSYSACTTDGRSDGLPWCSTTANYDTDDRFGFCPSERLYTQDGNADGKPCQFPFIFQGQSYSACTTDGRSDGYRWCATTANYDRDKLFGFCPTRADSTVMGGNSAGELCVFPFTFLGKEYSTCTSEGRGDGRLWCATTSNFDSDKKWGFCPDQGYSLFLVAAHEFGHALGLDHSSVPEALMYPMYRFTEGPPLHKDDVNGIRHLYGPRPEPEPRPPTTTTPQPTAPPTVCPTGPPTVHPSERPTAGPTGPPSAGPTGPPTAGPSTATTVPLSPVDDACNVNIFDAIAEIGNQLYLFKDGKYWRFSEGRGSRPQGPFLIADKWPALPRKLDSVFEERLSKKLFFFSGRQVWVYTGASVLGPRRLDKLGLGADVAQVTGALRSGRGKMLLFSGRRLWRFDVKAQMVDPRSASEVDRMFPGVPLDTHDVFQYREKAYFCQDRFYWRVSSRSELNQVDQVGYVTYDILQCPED

With MMP-3 (Homo sapiens) the Km [1] was 66 µM, the kcat [1] was 3.95 S^-1 and the kcat/Km [1] was 59,400 S^-1 M^-1. The Km [2, 7] was 20 µM, the kcat [2, 7] was 1.31 S^-1 and the kcat/Km [2, 7] was 65,700 S^-1 M^-1. The Km [2, 8] was 25 µM, the kcat [2, 8] was 5.40 S^-1 and the kcat/Km [2, 8] was 218,000 S^-1 M^-1. For the same substance, the Km [2, 9] was 7.5 µM, the kcat [2, 9] was 2.20 S^-1 and the kcat/Km [2, 9] was 302,000 S^-1 M^-1. For the same substance, the Km [3] was 50 µM, the kcat [3] was 0.53 S^-1 and the kcat/Km [3] was 10,900 S^-1 M^-1.
MMP-9 (Homo sapiens) was tested, and the Km [4] was 25 µM, the kcat [4] was 1.38 S^-1 and the kcat/Km [4] was 55,300 S^-1 M^-1. For the same substance, the Km [5] was 28 µM, the kcat [5] was 0.282 S^-1 and the kcat/Km [5] was 10,100 S^-1 M^-1. For the same substance, the Km [6] was 45 µM, the kcat [6] was 0.18 S^-1 and the kcat/Km [6] was 4,000 S^-1 M^-1.
